Measurements from publication doi:10.1101/391136.

How the values were obtained:
S100A1 [1] = assay: ITC
S100A1 [2] = assay: other fluorescence titration

Kd (S100A1 [1]): 6.37 µM
stoichiometry N (S100A1 [1]): 1
Kd (S100A1 [2]): 10 µM
Substance: S100A4 (from UniProt P26447 4-101) (natural protein)
